# Assay: yeast display, Sf9 membrane polyspecificity reagent, FACS + sequencing; frameworks hold sequencing errors
# How it was run: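 Using colony PCR, genes from sorted yeast display clones were amplified, then sequenced on MiSeq at 2 × 250 and filtered by CDR length. The clones had been stained with 10% biotinylated, detergent-solubilized Sf9 membrane reagent for 1 hour at 4 °C and sorted by FACS into low and high (top ~1%) gates on anti-HA and streptavidin fluorescence. Polyreactivity labels come from the gate of origin.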
row,Sequence,polyreactivity (PSR sort gate)
1,QVQLVESGGGLVQAGGSLRLSCAASGSTSPNAMGWYRQAPGKERELVAAIWSGGTYYADSVKGRFTISRDNAKNTVYLQLNSLKPEDTAVYYCAVTGVYRGFRYGYLGQGTQVTVSS,low polyreactivity
2,QVQLVESGGCLLQAGGSLRLSCAASGYIFERNAMGWYRQAPGKERELVAAITDDGDDTYYADSVKGRFTISRDNEKNTVYLQMNSLKPEDTAVYYCAKDLYYGDYYYWGQGTQVTVSS,low polyreactivity
3,QVQLVESGGFLVQAGGSLRLTCAASGSIIENNAMGWSRQAPRKERELVDAISSDDTTNYADSVKGRFTISRDNAKNTVYLLMNRLLPVDTAVYYCNVDSGPEDKTVTYDYWGQGTQVTVSS,low polyreactivity
4,QVQLVESGGGLVPAGGSLRLSCAASGRTVRRNAMGWYRHAPGKERELVADISNGDSTKYADSVKGRFTISRDNAKNTVYLQMNSVNPEDTAVYYCATEVSWHWYQQSVTRMDYWGQGTQVTVSS,low polyreactivity
5,QVQLVESGGGLVQAGGSLRLSCAASGRTLDWNAMGWYRQAPGKERELVAAISWSGDSTYYADSVKGRFTISRDNAKNTVYLQMNSLKPEDTAVYYCDARYGRSWGRGYGYWGQGTQVTVSS,low polyreactivity
6,QVQLVESGGGLVQAGGSLRLSCAASGSIFASNTMGWYRQAPGKERELVAGITKIGSSTYYADSVKGRFTISRDHAKNTVYLQMNSLKPEDTSVYYSNAYGPNIYSSRYDYWGQGTQVTLSS,low polyreactivity
7,QVQLVESGGGLVQAGGSLRLSCAASGGTFTYYAKGWYRQAPGKERELVAAISWSDTSTYYADSVKGRFTISRDNAKNTVYLQMNSLKPEDTAVYYCAAEFYVRYQADYEYWGQGTQVTVSS,high polyreactivity
8,QVQLVESGGVLVQAGGSLRLTCAASGSILYLNAMGWYRQAPGKERELVAAITWSGGSTSYADSVKGRFTISRDNAKYTVSLQMNSLKPEDTAVYYCASGRRGYGGVYYAGGYWGQGTQVTVSS,low polyreactivity
9,QVQLVESGGGLVQAGGSLRLSCAASGSTFFPYAMGWYRQAPGKERELVATINYSGGGTYYADSVKGRFTISRDNAKNTVYLQMNSLKPEDTAVYYCANTLARFDRGYYWGQGTQVTVSS,low polyreactivity
10,QVQLVESGGGLVQAGGSLRLSCAASGRIFRGYARGWYRQAPGKEREFVAAITKNGGSTYYADSVKGRFTISRDNAKNTVYLQMNSLKPEDTAVYYCAVRAWDPYTGKSDYWGQGTQVTVSS,low polyreactivity
11,QAELVESGGGLVQAGGSLRLSCAASGLTFRAYAMGGYRQAPGKERELVAAISWNGGSTYYADSVKGRFTISRDNAKNTVYLQMNCLKPEDTAVYYCNAYDYQYFYGYEYDYWGQGTQVTVSS,high polyreactivity
12,QDQLVESGGGLVQAGGSLRLSCAASGFTFWEYAMGWYRHAPGKERELVAAISRGTSTYYADSVKGRFTISRDNAKNTVYLQMNSLKPEDTAVYYCASAPSYYPARHGYWGQGTQVTVSS,low polyreactivity
13,QVQLVESGGGLVQAGGSLRLSCAASGSIFKEYAMGWYRQAPGKERELVAAITGSGGSTFYADSVKGRFTISRDNAKNTVYLQMNSLIPEDTAVYYCNARRPAKSRYRHDYWGQGTQVTVSS,high polyreactivity
14,QVQLVESGGGLVQAGGSLRLICAASGSTFLVYSMGWYRQEPGKERELVAAISYSGGSTYYADSVKGRFTISRDNSKNTVYLQLNSLKPEDTAVYYCNVEPVDRWYYKYDYWGQGTEVTVSS,low polyreactivity
15,QVQLVESGGGLVQAGGSLRLICGASGSTFQVNAMGWYRQGPGKERELVASISGGSSTNYADSVKGRFTISRDNAKNTVYLQMNSLKPEDTAVYYCAAYYLSGLRVAYDYWGQGTQVTVSS,low polyreactivity
16,QVQLVESGGGLVQARGSLRLSCAASALTFRIYDMGWYRQAPGKERELVAAITRGGSTYADSVKGRFTISRDNAKNTVYLQMNSLKPEDTAVYYCAARVRSTSQVSASPVWYYYWGQGTQVTVSS,high polyreactivity
17,QVQLVESGGGLVQAGGSLRLSCAASGSTFTPNAMGWYRQAPGKERELVAAIRYTGVGTYYADSVKGRFTISRDNAKNTVYLQMNSLKPEDTAVYYCNRVSRYYNYDYWGQGTQVTVSS,high polyreactivity
18,QVQLVESGGGLVQAGGSLRLSCAASGGTFYQYAMGWYIQAPGKERELVAAISRSGGRTYYADSVKGRFTISRDNAKNTVYLQMNSLIPEDTAVYYCAADDVGPPDFYYWGQGTQVTVSS,high polyreactivity
19,QVQLVESGGGLVQAGGSLRLSCAASGSTFFRNAMGWYRQAPGKERELVAGITSGVTTYYADSVKGRFTISRDNAKNTVYLQMNSLKPEDTAVYYCAVYWRGRGAFTYGSWGQGTQVTVSS,high polyreactivity
20,QVQHEESGGGLVQAGGSLRLSCASSGLIFKFSAMGWYRQAPGKERELVAAITSRGGSTYYADSVKGRFTISRDNAKNTVYFQMNSLKPEDTEVYYCAADVRTQHYNAQYDYWGQGTQVTVSA,high polyreactivity
21,QVQLVESGGGLVQAGGSLRLSCAASGITFEGYAMGWYRQAPGKERELVAAITWSGGRTYYADSVKGRFTISRDNAKNTVYLQMNSLKPEDTAVYYCAADVSDWSNQYFDSYLRMDYWGQGTQVTVSS,low polyreactivity
22,QVQLVESGGGLVQAGGSLRLSCAPSGSIFQFYAMGWYRQAPGKESELVAGINTSGGSTYYADSVKGRFTISRDNAKNTVYLQMNSLKPEDTEVYYCMARSRYDTGRQRGYDYWGQGTQVTVSS,low polyreactivity

row,Sequence,polyreactivity (PSR sort gate)
1,QVQLVESGGGLVQAGGSLRLSCAASGSTFPRNAMGWSRQAPGKERELVAAISFRGSTTYYADSVKGRFTISRDNAKNTVYLQMNSLKPEDTAVYYCAADGGRQARTYSRYYWGQGTQVTVSS,high polyreactivity
2,PVQLLESGRGLVQAGGRLRLSCAASGINFKYNAMGWYRQAPGKERELVAAISWRGGSTYYADSVKGRFTISRDNAKNTVSLQMNSLKPEDTAVYSCAANLAGSSYYDWGQGTQVTVSS,low polyreactivity
3,QVQLVESGGGLVQAGCSLRLSCAASGRIFYYNTMGWYRQAPGKERELVAAINFSGDRTYYADSVKGRFTISRDNAKNTVYLQMNSLKPEDTAVYYCAAQGYWYGYQPGNFWGQGTQVTVSS,high polyreactivity
4,QVQLVESGGGLVQAGGSLRLSCAASGRTFWFYGMGWYRQAPGKEREFVARISASGGSTYYADSVKGRYTISRDNAKNTVYLQMNSLKPEDTAVYYCARDTPWRYYYWGQGTQVTVSS,high polyreactivity
5,QVQLVESGGGLVQAGGSLRLSCAASGRIFGYYAMGWYRQAPGKESELVATINSVGSTNYADSVKGRFTISRDNAKNTVYLQMNSLKPEDTAVYYCATDSAYTFFTYRLWRHGYWGQGTQVTVSS,low polyreactivity
6,QVQLVESGGGLVQAGGSLRLSCAASGRIIRSYAMGRYRQAPRKERELVDAITTGGRTYYADSVKGRFTISRDNAKNTVYLQMNSLKPEDTAVYYCNSALVYRGTDTNDYWGQGTQVTVSS,high polyreactivity
7,QVQLVESGGGLVQAGGSLRLSCAASGSIFIVYAMGWYRQAPGKERELVATITSGGSTNYADSVKGRFTISRDNAKNTVYLQMNSLKPEDTAVYYCATQFPPSTIYDYWGQGTQVTVSS,low polyreactivity
8,QVQLVESCGGLVQAGGRLRLSCADYGRTFSWYAMGSYRQAPGKERELVAAITFRGGRTYYADSVKGRFTISRDNAKNTVYIQMNSLKPEDTAVYYFNAVTYSSPYRFDYCGQGTQVTVSS,low polyreactivity
9,QVQLVESGGGLVQAGGSLRLSCAASGSTFGYNDMGWYRQAPGKERELVAAISVSDSSTYYADSVKGRFTISRDNAKNTVYLQMNSLKPEDTAVYYCAAYIYYNYSRQYWYDYWGQGTQVTVSS,low polyreactivity
10,QVQLVESGGGLVQAGGSLRLSCAASGYIFVWYDMGWYRHAPGKERELVAAITWSGGSTYADSVKGRFTISRDNAKNTVYLQMNSLIPEDTAVDYCNADNNLDVYVDYGFNYWGQGTQVTVSS,low polyreactivity
11,QVQLVESGGGIVQAGGSLRLSCAASGSTFYVNTMGWYRQAPGKERDLVAAISYTGGNTYYADSVKGRFTISRDNAKNTVYLQMNSLKPEDTAVYYCAARILYRGTGYPYRMNYWGQGTQVTVSS,high polyreactivity
12,QVQLVESVGGLVQAGGSLRLSCAASGRTFVRYTMGWYRQAPGKERELVAAITWSGGSTYYADSVKGRFTISRDNATNTVYLQMNSLKPEDTAVYDCAARTYFGTQLQRYYWGQGTQVTVSS,high polyreactivity
13,QVQLVESGGGLVQAGGSLRLSCAASGRTFGYNTMGWYRQAPGKEREFVATIRTNGVSTYYADSVKGRFTISRDNAKNTVYLQMNSLKPEDTAVYYCNAPRTRKQKTIYVNAPGNYWGQGTQVTVSS,low polyreactivity
14,QVQLVESGGGLVQAGGSLRLSCAASGFTFKYYAMGWYRQAPRKERELVAAITSRGGSTYYADSVKGRFTISRDNAKNTVYLQMNSLKPEDTAVYYCAARFRKIGVAFDYWGQGTQVTVSS,high polyreactivity
15,QVQLVESGGGLVQAGGSLRLICAASGRTFGGNAMGWYRQAPGKERELVAAISSGGSTNYADSVNGRFTISRDNAKNTVYFLMNSLKPEDTAVYYCAADSKIGSFDSWGQGTQVTVSS,low polyreactivity
16,QVQLVESGGGLVQAGGSLRLSCASSGFTFTLYARGWYRQAPGKEWELVAAINRSGGRTYYADSVKGRFTISRDNAKNTVYLQMNSLKPEDTAVYYCNKYPWPNYYDGEYDYWGQGTQVTVSS,high polyreactivity
17,QVQLVESGGGLVQAGGSLRLSCAASGSTFTGNAMGWYRQAPGKERELVASISTGGSTNYADSVKGRFTISRDNAKNTVYLQMNSLKPEDTAVYYCATDYCFKDSVVDFDYWGQGTQVTVSS,low polyreactivity
18,QVQLVGSGGGLVQAGGSLRLSCAASGIIFQLYAMGWYRQAPGKERELVAAITSTGTTNYADSVKGRFTISRDNAKNTVYLQMNCLKPEDTAVYYCNADVGYWWGYYGYDYWGQGTQVTVSS,high polyreactivity
19,QVQLVESGGGLVQAGGSLRLSCAASGFTFKDNTMGWYRQAPGKEGELVAAISSRGGSTYYADSVKGRFTISRDTAKNTVYLQMNSLKPEDTAVYYCAARSHSSRSRSPGDYWGQGTQVTVSS,high polyreactivity
20,QLQLVESGGGLVQAGGSLRLSCAASGSTFNYNAMGWYRQAPGKEREFVAAISRSGGSTSYADSVKGRFTISRDNAKNTVYLQMNSLKPEDTAVYYCAAYYRKTGYDYWGQGTQVTVSS,high polyreactivity
21,QVQLVESGGGLVQAGGSLRLSCAASGRIFSSNAMGWYRQAPGKERELVAAITSGGSTYADSVKGRFTISRDNAKNTVYLQMNSLKPEDTAVYYCAKDGPGGGTRIYDYWGHGTQVTVSS,high polyreactivity

# — the nanobody polyreactivity screen of Harvey et al. (2022)
